The results in this text go back to patent US20260008815A1, “CYCLIC PEPTIDE OR SALT THEREOF, AND USES THEREOF” (FUJIFILM Corporation, priority 2023, published 2026).

Sequences and labels used below:
B1: cyclic peptide SEQ ID NO: 40 (peptide)
peptide: DCSGNFFSKEQFHYLELFK(COCH2)K
modifications: thioether 2-19; not fully specified; printed as D-(C)-SGNFFSKEQFHYLELF-(K(acetyl))-K
B2: cyclic peptide SEQ ID NO: 38 (peptide)
peptide: QCSYLYQYVFERYKVTVPK(COCH2)D
modifications: thioether 2-19; not fully specified; printed as Q-(C)-SYLYQYVFERYKVTVP-(K(acetyl))-D
B3: cyclic peptide SEQ ID NO: 39 (peptide)
peptide: QCENWLSQDQWKYFWQYK(COCH2)I
modifications: thioether 2-18; not fully specified; printed as Q-(C)-ENWLSQDQWKYFWQY-(K(acetyl))-I

Bridge positions count the residues as written; N and C are the ends. Ends that are not written are not given here. COCH2 = acetyl group that carries the bridge Where only a bound is given, the exact number is not on record here.

T1 sequence (P21802 22-377, change not shown): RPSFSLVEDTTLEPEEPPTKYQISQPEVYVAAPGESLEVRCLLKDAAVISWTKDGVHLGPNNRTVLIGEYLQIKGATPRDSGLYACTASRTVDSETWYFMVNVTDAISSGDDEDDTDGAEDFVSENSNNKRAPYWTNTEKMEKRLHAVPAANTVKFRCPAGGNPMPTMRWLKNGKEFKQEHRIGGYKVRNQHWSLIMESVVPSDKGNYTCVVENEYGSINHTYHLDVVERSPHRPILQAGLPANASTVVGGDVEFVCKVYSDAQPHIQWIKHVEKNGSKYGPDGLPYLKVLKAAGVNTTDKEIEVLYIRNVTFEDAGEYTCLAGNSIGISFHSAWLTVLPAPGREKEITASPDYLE

This assay has as its target T1, Recombinant Human FGFR2 alpha (IIIc) Fc Chimera Protein, CF (R&D systems, 712-FR-050) (human, UniProt P21802 22-377).
T1 construct: bought; not shown: Fc part of the chimera
In words: ELISA on plate-bound FGFR2-Fc. In outline:
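Plate-immobilized FGFR2 alpha (IIIc)-Fc (5 ng/well) incubated with peptide 3 h at room temperature, then anti-Myc antibody 2 h and chemiluminescent ELISA substrate. Signal corrected by subtracting FGFR-free wells; binding affinity scored into categories from the dose-response.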
(In general: ELISA stands for enzyme-linked immunosorbent assay.)
QCYFLSQYILERYKVHK(COCH2)L (thioether 2-17) [cyclic peptide SEQ ID NO: 42]: the “ELISA luminescence signal at 10 nmol/L peptide, relative to SEQ ID NO: 47 (=1)” value is no less than 0.7 ratio. In the case of QCWYIQQYIWERYFLWHNK(COCH2)E (thioether 2-19) [cyclic peptide SEQ ID NO: 120] it was 0.1 to 0.5 ratio; in that of LCPVPQQTDYLRWYQIIHK(COCH2)Q (thioether 2-19) [cyclic peptide SEQ ID NO: 118], 0.1 to 0.5 ratio; in that of GCGYTQLHYQHLFAWLHARK(COCH2)V (thioether 2-20 (inferred)) [cyclic peptide SEQ ID NO: 425], 0.1 to 0.5 ratio.

Take YCHENYLDPEQYQYFHYFK(COCH2) (thioether 2-19 (inferred)) [cyclic peptide SEQ ID NO: 429]: the “ELISA luminescence signal at 10 nmol/L peptide, relative to SEQ ID NO: 47 (=1)” value lay in the range of 0.1 to 0.5 ratio.

On to LCGNYITPLQWKYFQTYK(COCH2)W (thioether 2-18) [cyclic peptide SEQ ID NO: 41], for which the “ELISA luminescence signal at 10 nmol/L peptide, relative to SEQ ID NO: 47 (=1)” value was no less than 0.7 ratio. In the case of NCPNYWSQIQWHYFQAYK(COCH2)Q (thioether 2-18) [cyclic peptide SEQ ID NO: 115] it was no less than 0.7 ratio; in that of YCTDNYIDDIQFWYLFLYK(COCH2)Q (thioether 2-19) [cyclic peptide SEQ ID NO: 107], 0.5 to 0.7 ratio. Turning to YCTDNYIDDIQFWYLFLYK(COCH2)H (thioether 2-19) [cyclic peptide SEQ ID NO: 114], the “ELISA luminescence signal at 10 nmol/L peptide, relative to SEQ ID NO: 47 (=1)” value was no less than 0.7 ratio. In the case of CENYLDPEQYQYFHYFK(COCH2)Y (thioether 1-17 (inferred)) [cyclic peptide SEQ ID NO: 432] it was 0.1 to 0.5 ratio; in that of LCRNYINPQQWRYFALYK(COCH2)Y (thioether 2-18) [cyclic peptide SEQ ID NO: 108], no less than 0.7 ratio. As for LCRNYINPQQWRYFALYK(COCH2)N (thioether 2-18) [cyclic peptide SEQ ID NO: 117], the figure is no less than 0.7 ratio. In the case of QCQTDHQQQLYFIYQYLQK(COCH2)I (thioether 2-19) [cyclic peptide SEQ ID NO: 110] it was 0.1 to 0.5 ratio; in that of CHENYLDPEQYQYFHYFK(COCH2)Y (thioether 1-18 (inferred)) [cyclic peptide SEQ ID NO: 430], no less than 0.7 ratio.

With B1, the “ELISA luminescence signal at 10 nmol/L peptide, relative to SEQ ID NO: 47 (=1)” value is no less than 0.7 ratio. For HCQPEYELYYIYLYLNALK(COCH2)I (thioether 2-19) [cyclic peptide SEQ ID NO: 112], the “ELISA luminescence signal at 10 nmol/L peptide, relative to SEQ ID NO: 47 (=1)” value is 0.1 to 0.5 ratio. In the case of QCYQNWYLYQYLVERYYK(COCH2)D (thioether 2-18) [cyclic peptide SEQ ID NO: 116] it was 0.1 to 0.5 ratio. As for DCYWDDQQYSFLQLYK(COCH2)R (thioether 2-16) [cyclic peptide SEQ ID NO: 121], the figure is no less than 0.7 ratio. In the case of ECDQAQQVYALIYRYLYQLQK(COCH2)V (thioether 2-21 (inferred)) [cyclic peptide SEQ ID NO: 428], the “ELISA luminescence signal at 10 nmol/L peptide, relative to SEQ ID NO: 47 (=1)” value was in the range of 0.1 to 0.5 ratio. In the case of B2 it was no less than 0.7 ratio; in that of B3, no less than 0.7 ratio; in that of QCRYFWQYVLERYRVRLPK(COCH2)E (thioether 2-19) [cyclic peptide SEQ ID NO: 119], no less than 0.7 ratio. Regarding QCENWVNSTQFEFFWQYK(COCH2)T (thioether 2-18) [cyclic peptide SEQ ID NO: 122], the “ELISA luminescence signal at 10 nmol/L peptide, relative to SEQ ID NO: 47 (=1)” value was in the range of 0.5 to 0.7 ratio.

For RCINYWSGQQFYFFQQYK(COCH2)F (thioether 2-18) [cyclic peptide SEQ ID NO: 113], the “ELISA luminescence signal at 10 nmol/L peptide, relative to SEQ ID NO: 47 (=1)” value fell in the range of 0.1 to 0.5 ratio. In the case of VCTQPQQDFELIYQYLYQLAK(COCH2)Q (thioether 2-21 (inferred)) [cyclic peptide SEQ ID NO: 424] it was 0.1 to 0.5 ratio; in that of ECDTADYPQEWIQDVYQYLYK(COCH2)R (thioether 2-21 (inferred)) [cyclic peptide SEQ ID NO: 427], 0.1 to 0.5 ratio; in that of QCDQEFYLALYAWTLRSYK(COCH2)L (thioether 2-19) [cyclic peptide SEQ ID NO: 111], 0.1 to 0.5 ratio. As for PCDPLNLQQWYTAVYQLWHK(COCH2)R (thioether 2-20 (inferred)) [cyclic peptide SEQ ID NO: 426], the figure is 0.1 to 0.5 ratio; as for DCFINELQYFYIQQYKK (not fully specified; thioether ring (C)-(K(acetyl))) [cyclic peptide SEQ ID NO: 109], 0.5 to 0.7 ratio; as for QCQLNYWDDLQFTYYLQYK(COCH2)V (thioether 2-19) [cyclic peptide SEQ ID NO: 37], no less than 0.7 ratio. In the case of CHENYLDPEQYQYFHYFK(COCH2) (thioether 1-18 (inferred)) [cyclic peptide SEQ ID NO: 431], the “ELISA luminescence signal at 10 nmol/L peptide, relative to SEQ ID NO: 47 (=1)” value is 0.1 to 0.5 ratio.
